# Test results published in patent publication KR20220054080A (dated 2022).
# “And” between values parts separate entries of the source, which are not always exact repeats. Identical values can stand only once.
# Legend:
# [1] = biological target: SARS-CoV 스파이크 [change] (#40150-V08B1, Sino Biological) (SARS-CoV, UniProt P59594 14-667); assay: ELISA, coated S1-His
# SARS-CoV-2 RBD-hFc = SARS-CoV-2 RBD-hFc (SARS-CoV-2, UniProt P0DTC2 319-541); assay: cell-based or functional assay
# [2] = biological target: T1, SARS-CoV-2 spike protein on live SARS-CoV-2 virus (SARS-CoV-2, UniProt P0DTC2 14-1273); assay: cell-based or functional assay
# [3] = biological target: SARS-CoV RBD-His (#40150-V08B2, Sino Biological) (SARS-CoV, UniProt P59594 306-527); assay: ELISA, coated His-tagged antigen
# SARS-CoV-2 스파이크 S1-mFc = biological target: T2, SARS-CoV-2 스파이크 S1-mFc (SARS-CoV-2, UniProt P0DTC2 16-685); assay: competition ELISA: S1-mFc on coated ACE2-His
# T2 construct: range 16-685
# SARS-CoV-2 RBD-mFc [4] = biological target: T3, SARS-CoV-2 RBD-mFc (SARS-CoV-2, UniProt P0DTC2 319-541); assay: competition ELISA: RBD-mFc on coated ACE2-His
# T3 construct: range 319-541
# SARS-CoV-2 RBD-mFc [5] = biological target: T3, SARS-CoV-2 RBD-mFc; assay: flow cytometry competition: RBD-mFc on HEK293E/ACE2 cells
# SARS-CoV-2 RBD-mFc [6] = biological target: T3, SARS-CoV-2 RBD-mFc; assay: Octet QKe BLI, 1:1 global fit
# [7] = biological target: T1, SARS-CoV-2 spike protein on live …; assay: cell-based or functional assay; remark: listed apart in the source
Binder,binding result [1],"IC50, 세포내 유입(internalization) 억제, HEK293E/ACE2-GFP (SARS-CoV-2 RBD-hFc) [nM]","IC50, live SARS-CoV-2 미세중화분석, Vero 세포 [2] [nM]",binding result [3],IC50 (SARS-CoV-2 스파이크 S1-mFc) [nM],IC50 (SARS-CoV-2 RBD-mFc [4]) [nM],IC50 (SARS-CoV-2 RBD-mFc [5]) [nM],Kd (SARS-CoV-2 RBD-mFc [6]) [nM],koff (SARS-CoV-2 RBD-mFc [6]) [s⁻¹],kon (SARS-CoV-2 RBD-mFc [6]) [M⁻¹ s⁻¹],"IC50, live SARS-CoV-2 미세중화분석, Vero 세포, 72시간 [7]"
"SA4044 (antibody, V domains shown) VH: EVQLVQSGGGLIQPGGSLRLSCAASGFTVSSNYMSWVRQAPGKGLEWVSVIYSGGSTYYADSVKGRFTISRDNSKNTLHLQMNSLRAEDTAVYYCARDLPQFDGFDYWGQGTLVTVSS VL: QSALTQPPSLSVAPGRTARITCGGNNIGSKSVNWYQHMPGQAPVLVIYSDTDRPSGIPERVSGSKSGNTATLSISRVEAGDEADYYCQVWDSTTDHVVFGGGTKLTVL",no binding (tested: 50 nM),39.2,80.5,no binding,13.6,58.3,2.21,,,,
"SA4050 (antibody, V domains shown) VH: QVQLVESGAEVKKPGASVKVSCKASGYTFTGYFIHWVRQAPGQGLEWMGWINPNSGGTNYAQKFQGRVTMTRDTSISTAYMELSRLRSDDTAVYYCARVPHLSGYYYEGVLGYFDYWGQGTLVTVSS VL: QSALTQPASVSGSPGQSITISCTGTSIDIGSYNFVSWYQRHPGKAPRLLIYDVSDRPSGVSNRFSGSKSANTASLTISGLQAEDEADYYCSSYTSSSLWVFGGGTKLTVL",no binding (tested: 50 nM),36.9,0.71,no binding,1.45,3.14,2.93,0.0929,4.67e-05,503000,
"SA4053 (antibody, V domains shown) VH: EVQLVQSGGGLVQPGGSLRLSCADSGFTFSSYWMSWVRQVPGKGLEWVANIKQDGSEKYYVDSVKGRFTISRDNAKNSLYLQMNSLRAEDTAVYYCARDVGRGYCSSTSCYRFGGREDFFDYWGQGTLVTVSS VL: QLVLTQPPSVSAAPGQRVTISCSGSFSNVGNNFVSWYRHLPGTAPELLIYDNNQRPSGIPDRFSASKSGTSATLAITGLHTGDEADYYCGTWDTSLSGVVFGGGTKLTVL",no binding (tested: 50 nM),62.7,346,no binding,22,40.6,2.21,0.689,0.000218,316000,
"SA4055 (antibody, V domains shown) VH: EVQLVQSGGGLVQPGGSLRLSCAASVITVSSNYMSWVRQAPGKGLEWVSVIYPGGSTYYADSVKGRFTISRDKSKNTLYLQMNSLRAEDTAVYYCARDLDIVGGMDVWGQGTTVTVSS VL: QSALTQPASVSGSPGQSITISCTGTSSDVGDYNLVSWYQQHPGKAPKVMIYDVSHRPSGVSNRFSGSKSGNTASLTISGLQAEDEADYYCSSYTSSTTVVFGGGTKLTVL",no binding (tested: 50 nM),37.1,7,no binding,1.88,0.144,2.9,0.061,2.36e-05,387000,3.22 nM and 4.51 nM
"SA4056 (antibody, V domains shown) VH: QVQLQESGGGLVQPGGSLRLSCAASVITVSSNYMSWVRQAPGKGLEWVSVIYPGGSTYYADSVKGRFTISRDKSKNTLYLQMNSLRAEDTAVYYCARDLDIVGGMDVWGQGTTVTVSS VL: DIQMTQSPSTLSASVGDRVTITCRASQSISRWLAWYQQKPGQAPKLLIYAASTLQSGVPSRFSGSGSGTEFTLTISSLQPDDFATYYCQQYDSYPRTFGQGTKVDIK",no binding (tested: 50 nM),28.1,11.3,no binding,1.4,1.86,2.19,0.0907,4.32e-05,477000,
